Results: US20140057840A1, “ANTI-ANDROGENIC AGENT, SEBUM SECRETION BLOCKER, HAIR GROWTH STIMULANT, AND FOOD OR BEVERAGE” (LOTTE CO., LTD., priority 2009, published 2014)

How the values were obtained:
androgen receptor = molecular target: T1, androgen receptor (Mus musculus, UniProt P19091); assay: Androgen receptor binding blocking test (DHT-dependent proliferation of SC-3 cells, MTT assay); format: cell-based; settings: SC-3 cell, 10^−8M DHT, FIG. 2
T1 construct: An androgen-dependent mouse breast cancer cell SC-3 cell; endogenous in cells; host or cells: SC-3 mouse breast cancer cells
T1 sequence (P19091 1-899): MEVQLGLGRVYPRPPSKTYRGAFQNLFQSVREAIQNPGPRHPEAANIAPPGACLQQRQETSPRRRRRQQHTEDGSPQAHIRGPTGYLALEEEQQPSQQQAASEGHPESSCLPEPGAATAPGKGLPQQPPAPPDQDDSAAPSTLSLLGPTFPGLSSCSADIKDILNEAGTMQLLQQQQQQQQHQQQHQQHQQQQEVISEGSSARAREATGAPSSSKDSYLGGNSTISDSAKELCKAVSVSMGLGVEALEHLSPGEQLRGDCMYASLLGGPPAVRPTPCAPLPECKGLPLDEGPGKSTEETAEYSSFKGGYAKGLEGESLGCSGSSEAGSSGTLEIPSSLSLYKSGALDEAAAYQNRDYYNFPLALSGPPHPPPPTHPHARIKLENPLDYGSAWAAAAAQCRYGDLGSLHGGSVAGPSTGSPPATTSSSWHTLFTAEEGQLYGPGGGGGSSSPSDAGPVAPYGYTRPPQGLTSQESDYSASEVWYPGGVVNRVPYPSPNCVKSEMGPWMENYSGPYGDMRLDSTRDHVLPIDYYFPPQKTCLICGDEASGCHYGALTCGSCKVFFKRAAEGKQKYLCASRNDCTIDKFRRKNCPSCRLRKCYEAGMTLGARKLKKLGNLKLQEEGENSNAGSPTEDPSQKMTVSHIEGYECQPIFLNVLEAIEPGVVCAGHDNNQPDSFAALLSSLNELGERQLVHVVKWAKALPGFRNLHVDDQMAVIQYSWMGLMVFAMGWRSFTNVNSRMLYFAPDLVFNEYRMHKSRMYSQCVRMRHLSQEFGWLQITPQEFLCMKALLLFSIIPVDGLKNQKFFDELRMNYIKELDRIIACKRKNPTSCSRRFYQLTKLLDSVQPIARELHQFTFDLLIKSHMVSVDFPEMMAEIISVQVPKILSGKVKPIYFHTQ
Experimental: 24 Hours later, the culture medium was exchanged with HMB medium (0.1% BSA-containing Ham F12+MEM medium) to which the test sample and 10^−8M DHT were added, and the cell was cultured for 48 hours.
Then, in accordance with MTT assay, the cell proliferation was evaluated by measuring the absorbance at 570 nm, which is the absorption maximum of blue formazan.
To correct the influence of adherent cells, the absorbance at 650 nm was also measured simultaneously, and the difference between both absorbances was used as the produced amount of blue formazan. At the same time with the above, to examine the effect of the sample alone on SC-3 cell, the same culture and measurement were carried out by adding the sample alone, without adding DHT, to the HMB medium. […] Based on the measurement results, the binding blocking rate representing the anti-androgenic activity was determined using the following formula. […]
A: The absorbance when DHT was added but the sample was not added
B: The absorbance when DHT was not added and the sample was not added
C: The absorbance when DHT was added and the sample was added
D: The absorbance when DHT was not added but the sample was added

hamster sebocytes = assay: Sebocyte culture test (sebum synthesis amount, Oil Red O staining); format: cell-based, golden hamster; settings: medium with 1×10^−6M testosterone; for sebum synthesis amount suppressed to: about 2 weeks, FIG. 3
Experimental: 1. The test was carried out using a hamster sebocyte culture kit KB-1000 (manufactured by KURABO […] LTD.).
The sebocyte cell derived from the auricula of a normal golden hamster was inoculated in a 24-well plate in a density of 5.0×10^4 cells/well. During the test, the cell was cultured in medium containing testosterone in a concentration of 1×10^−6M.
2. The cell was cultured for several days until confluent, and the medium was exchanged with medium containing the test sample. The medium was exchanged with sample medium every other day and the culture was continued for about 2 weeks.
In this test, cow's lactoferrin was prepared to be used as the lactoferrin, and spironolactone was used as a control.
3. Then, using a sebum synthesis assay kit SE-3001 (manufactured by KURABO […], LTD.), a WST-8 solution was added to each well and incubated for 30 minutes at 37° C. The supernatant was assayed at a wavelength of 450 nm, and the number of viable cell was counted.
4. Further, the supernatant was stained with Oil Red O and observed under a microscope while extracted with 100% isopropanol and measured at a wavelength of 520 nm for the lipid synthesis amount.
The correction was made using the following formula, and the lipid synthesis amount per cell was compared.
Comparison of lipid synthesis amount per cell=absorbance B/absorbance A
Absorbance A: cell number measured value (450 nm)
Absorbance B: lipid synthesis amount measured value (520 nm)

[1] = system: testosterone 5α-reductase; assay: Testosterone 5α-reductase blocking test; format: biochemical; settings: result in words; enzyme solution S-9; FIG. 1
Experimental: 1. 0.5 ml of 5 mM Tris-HCl buffer solution (pH 7.2) was added to 0.1 ml of 3.0 mM testosterone solution (dissolved in propylene glycol).
2. Further, 0.1 ml of 6.7 mM NADPH solution (dissolved in 5 mM Tris-HCl buffer solution (pH 7.2)) and 0.05 ml of a sample solution (dissolved in 50% ethanol) were added thereto, the mixture was preheated at 37° C. and 0.1 ml of an enzyme solution (S-9, Oriental Yeast Co., Ltd.) was added to incubate for 1 hour.
In this test, cow's lactoferrin was prepared to be used as the lactoferrin, and saw palmetto was used as a control.
3. Then, 3 ml of dichloromethane was added to terminate the reaction, 0.5 ml of an internal standard solution (0.1 mg/ml of p-hydroxybenzoic acid n-hexyl ester) was added thereto followed by shaking for 10 minutes, and the mixture was centrifuged at 3000 rpm for 10 minutes.
4. The dichloromethane layer was separated, collected and dried under reduced pressure. […] The residual testosterone was measured by HPLC from the obtained sample solution.
The measurement was carried out by eluting with methanol/water (65/35) and monitoring at 254 nm under the conditions of using a YMC A-302 (internal diameter 4.6×150 mm) column at a column temperature of 40° C. at a flow rate of 1 ml/min. The measurement was carried out using the internal standard substance method and the blocking rate (%) was determined using the following formula. […]

- binding blocking activity (binding blocking rate) (androgen receptor; concentration of 60 ppm, 48 hours): about 85%
B1: lactoferrin (protein, UniProt P24627 20-708, looked up)
Lactotransferrin: APRKNVRWCTISQPEWFKCRRWQWRMKKLGAPSITCVRRAFALECIRAIAEKKADAVTLDGGMVFEAGRDPYKLRPVAAEIYGTKESPQTHYYAVAVVKKGSNFQLDQLQGRKSCHTGLGRSAGWIIPMGILRPYLSWTESLEPLQGAVAKFFSASCVPCIDRQAYPNLCQLCKGEGENQCACSSREPYFGYSGAFKCLQDGAGDVAFVKETTVFENLPEKADRDQYELLCLNNSRAPVDAFKECHLAQVPSHAVVARSVDGKEDLIWKLLSKAQEKFGKNKSRSFQLFGSPPGQRDLLFKDSALGFLRIPSKVDSALYLGSRYLTTLKNLRETAEEVKARYTRVVWCAVGPEEQKKCQQWSQQSGQNVTCATASTTDDCIVLVLKGEADALNLDGGYIYTAGKCGLVPVLAENRKSSKHSSLDCVLRPTEGYLAVAVVKKANEGLTWNSLKDKKSCHTAVDRTAGWNIPMGLIVNQTGSCAFDEFFSQSCAPGADPKSRLCALCAGDDQGLDKCVPNSKEKYYGYTGAFRCLAEDVGDVAFVKNDTVWENTNGESTADWAKNLNREDFRLLCLDGTRKPVTEAQSCHLAVAPNHAVVSRSDRAAHVKQVLLHQQALFGKNGKNCPDKFCLFKSETKNLLFNDNTECLAKLGGRPTYEEYLGTEYVTAIANLKKCSTSPLLEACAFLTR
notes: cow's lactoferrin; protein present in secretory fluids such as milk, tears, saliva, bile of mammals
- binding blocking activity, concentration dependence (androgen receptor; result in words): concentration-dependent binding blocking activity
- sebum synthesis amount suppressed to (hamster sebocytes; 10 ppm): 60%
- sebum synthesis amount suppressed to (hamster sebocytes; 20 ppm): 60%
- sebum synthesis amount, concentration dependence (hamster sebocytes; result in words, microscopic observation and absorbance measurement): suppressed the sebum synthesis amount in a concentration-dependent manner
- testosterone 5α-reductase blocking activity [1]: no testosterone 5α-reductase blocking activity
